Experiments:
Conditions in all cases: remark: other sources report otherwise
[1] = target: bacterially derived SARS-CoV RBD (SARS-CoV), P59594; test: BLI, bacterially derived SARS-CoV RBD
[2] = target: Mammalian SARS-CoV2 RBD (residues 331-524) with C-terminal 6XHis Tag (SARS-CoV-2), P0DTC2; test: ELISA on coated antigen, anti-human IgG-HRP
[3] = target: T1, untagged SARS-CoV-2 RBD expressed in E. coli BL21(DE3) and oxidatively refolded (RBDWT) (SARS-CoV-2), P0DTC2; test: BLI, RBD expressed in E. coli
[4] = target: T1, untagged SARS-CoV-2 RBD expressed in E. …; test: BLI, RBD expressed in E. coli, 1:1 Langmuir fit

B1: mAb 2H04 (antibody)
chain 1: EVQLQQSGAELVKPGASVKMSCKASGYTFTSYWITWVKQRPGQGLEWIGDIYPGSGSTKYNEKFRSEATLTVDTSSTTAYMQLSSLTSEDSAVYYCARWDFYGSRTFDYWGQGTTLTVSS
chain 2: DIVLTQSPAILSVSPGERVSFSCRASQNIGTIIHWYQQRTNGSPRLLIKYASESVSGIPSRFSGSGSGTDFTLSINSVESEDIADYYCQQSSSWPLTFGAGTKLELK
- Kd [1]: 1420 nM
- half-life [1]: 0.43 min
- minimum positive concentration [2]: < 5 µg/mL
- half-life [3]: 1.27 min
- Kd [4]: 40 nM
